According to patent US20240175042:

Legend:
[1] = biological target: EIN2-CEND (co-expressed in Arabidopsis mesophyll protoplasts) (UniProt Q9S814)
His6-EBF2 (purified) = His6-EBF2 (purified) (UniProt Q708Y0)
Chain of His6-EBF2 (purified) (Q708Y0 whole entry): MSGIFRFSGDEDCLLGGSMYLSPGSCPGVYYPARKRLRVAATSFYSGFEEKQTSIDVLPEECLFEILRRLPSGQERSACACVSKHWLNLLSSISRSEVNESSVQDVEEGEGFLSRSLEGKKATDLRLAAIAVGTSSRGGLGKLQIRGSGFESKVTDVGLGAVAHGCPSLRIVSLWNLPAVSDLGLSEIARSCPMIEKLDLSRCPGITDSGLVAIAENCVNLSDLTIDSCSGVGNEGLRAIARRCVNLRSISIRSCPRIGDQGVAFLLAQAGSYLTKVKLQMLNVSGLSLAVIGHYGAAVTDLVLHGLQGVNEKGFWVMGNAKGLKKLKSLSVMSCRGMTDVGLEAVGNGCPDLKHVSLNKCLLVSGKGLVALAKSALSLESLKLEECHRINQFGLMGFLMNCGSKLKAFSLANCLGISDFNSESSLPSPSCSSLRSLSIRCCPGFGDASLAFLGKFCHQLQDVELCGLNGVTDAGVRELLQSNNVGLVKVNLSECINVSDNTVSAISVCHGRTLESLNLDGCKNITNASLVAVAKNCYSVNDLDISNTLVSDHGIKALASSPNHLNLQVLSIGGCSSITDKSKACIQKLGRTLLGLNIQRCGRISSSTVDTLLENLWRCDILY

Chain of EIN2-CEND (co-expressed in Arabidopsis mesophyll protoplasts) (Q9S814 462-1294): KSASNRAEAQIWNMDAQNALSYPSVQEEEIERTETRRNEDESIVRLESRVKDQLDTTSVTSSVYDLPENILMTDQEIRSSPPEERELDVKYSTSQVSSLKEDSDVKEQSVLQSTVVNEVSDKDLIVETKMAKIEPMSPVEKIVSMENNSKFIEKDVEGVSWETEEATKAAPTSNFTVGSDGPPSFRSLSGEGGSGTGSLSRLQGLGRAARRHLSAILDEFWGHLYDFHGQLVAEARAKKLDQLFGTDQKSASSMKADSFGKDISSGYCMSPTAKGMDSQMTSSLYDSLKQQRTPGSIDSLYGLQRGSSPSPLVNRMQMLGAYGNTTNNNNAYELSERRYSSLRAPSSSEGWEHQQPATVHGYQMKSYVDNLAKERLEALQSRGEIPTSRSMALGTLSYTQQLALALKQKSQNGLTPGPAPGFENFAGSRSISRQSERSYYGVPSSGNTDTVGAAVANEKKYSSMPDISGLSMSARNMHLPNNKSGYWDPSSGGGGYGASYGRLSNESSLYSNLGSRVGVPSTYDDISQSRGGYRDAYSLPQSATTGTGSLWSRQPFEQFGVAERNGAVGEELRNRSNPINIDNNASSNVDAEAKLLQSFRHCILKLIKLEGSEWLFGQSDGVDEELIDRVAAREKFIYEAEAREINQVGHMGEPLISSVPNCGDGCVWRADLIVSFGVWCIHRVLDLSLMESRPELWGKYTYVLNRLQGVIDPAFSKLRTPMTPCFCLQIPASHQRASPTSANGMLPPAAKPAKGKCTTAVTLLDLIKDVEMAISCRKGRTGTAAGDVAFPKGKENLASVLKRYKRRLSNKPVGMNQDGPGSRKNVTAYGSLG
Chain of CTR1-KD^AAA (CTR1 kinase domain with T704A/S707A/S710A, expressed in Arabidopsis mesophyll protoplasts) (chain, as listed by the source T704A S707A S710A): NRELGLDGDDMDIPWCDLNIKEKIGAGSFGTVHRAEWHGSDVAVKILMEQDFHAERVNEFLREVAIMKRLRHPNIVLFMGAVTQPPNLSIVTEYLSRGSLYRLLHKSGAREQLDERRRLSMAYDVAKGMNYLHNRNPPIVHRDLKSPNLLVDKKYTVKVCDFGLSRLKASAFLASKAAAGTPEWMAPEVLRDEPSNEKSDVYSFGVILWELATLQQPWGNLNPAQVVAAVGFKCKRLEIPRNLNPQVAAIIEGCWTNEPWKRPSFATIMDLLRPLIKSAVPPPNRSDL
Chain of CTR1-KD (wild-type CTR1 kinase domain lacking the N-terminal domain, expressed in Arabidopsis mesophyll protoplasts) (chain, as listed by the source): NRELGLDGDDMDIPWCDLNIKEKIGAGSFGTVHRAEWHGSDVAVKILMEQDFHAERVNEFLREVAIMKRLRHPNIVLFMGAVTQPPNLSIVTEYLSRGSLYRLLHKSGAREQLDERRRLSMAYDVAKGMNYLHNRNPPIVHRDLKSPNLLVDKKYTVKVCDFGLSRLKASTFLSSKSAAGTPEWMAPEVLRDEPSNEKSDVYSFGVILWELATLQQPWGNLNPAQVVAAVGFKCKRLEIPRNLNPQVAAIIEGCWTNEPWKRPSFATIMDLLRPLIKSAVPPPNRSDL
Chain of His6-CTR1-KD^WT (purified CTR1 kinase domain, residues 531-821) (chain, as listed by the source): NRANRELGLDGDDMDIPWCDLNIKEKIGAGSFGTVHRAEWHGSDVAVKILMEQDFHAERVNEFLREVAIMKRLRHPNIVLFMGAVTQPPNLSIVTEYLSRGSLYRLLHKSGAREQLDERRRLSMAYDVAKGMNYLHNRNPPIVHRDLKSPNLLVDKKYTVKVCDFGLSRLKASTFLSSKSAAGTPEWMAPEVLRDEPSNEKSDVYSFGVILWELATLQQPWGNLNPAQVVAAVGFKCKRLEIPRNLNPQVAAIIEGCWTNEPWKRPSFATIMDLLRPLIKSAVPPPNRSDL

Substance | Phos-tag gel band shift of EIN2-CEND on co-expression in Arabidopsis mesophyll protoplasts [1] | in vitro kinase assay ([γ-32P]ATP incorporation, autoradiography) (His6-EBF2 (purified))
CTR1-KD^AAA (CTR1 kinase domain with T704A/S707A/S710A, expressed in Arabidopsis mesophyll protoplasts) | Wild-type CTR1-KD, but not CTR1-KD^AAA, phosphorylated EIN2-CEND when co-expressed in Arabidopsis mesophyll protoplasts | 
CTR1-KD (wild-type CTR1 kinase domain lacking the N-terminal domain, expressed in Arabidopsis mesophyll protoplasts) | Wild-type CTR1-KD, but not CTR1-KD^AAA, phosphorylated EIN2-CEND when co-expressed in Arabidopsis mesophyll protoplasts | 
His6-CTR1-KD^WT (purified CTR1 kinase domain, residues 531-821) |  | in vitro kinase assay demonstrated that CTR1 does not phosphorylate EBF2
